# According to patent publication US20150313972A1:
# Several values for one entry are separate records, joined by “and”; a condition that tells them apart may be missing. Equal entries are not always repeated.
# B1: purified recombinant human iduronate-2-sulfatase (I2S) produced in serum-free medium, P22304 26-550 (enzyme)
# chain: SETQANSTTDALNVLLIIVDDLRPSLGCYGDKLVRSPNIDQLASHSLLFQNAFAQQAVCAPSRVSFLTGRRPDTTRLYDFNSYWRVHAGNFSTIPQYFKENGYVTMSVGKVFHPGISSNHTDDSPYSWSFPPYHPSSEKYENTKTCRGPDGELHANLLCPVDVLDVPEGTLPDKQSTEQAIQLLEKMKTSASPFFLAVGYHKPHIPFRYPKEFQKLYPLENITLAPDPEVPDGLPPVAYNPWMDIRQREDVQALNISVPYGPIPVDFQRKIRQSYFASVSYLDTQVGRLLSALDDLQLANSTIIAFTSDHGWALGEHGEWAKYSNFDVATHVPLIFYVPGRTASLPEAGEKLFPYLDPFDSASQLMEPGRQSMDLVELVSLFPTLAGLAGLQVPPRCPVPSFHVELCREGKNLLKHFRFRDLEEDPYLPGNPRELIAYSQYPRPSDIPQWNSDKPSLKDIKIMGYSIRTIDYRYTVWVGFNPDEFLANFSDIHAGELYFVDSDPLQDHNMYNDSQGGDLFQLLMP
# modifications: here or on the partner: cysteine corresponding to Cys59 of mature human I2S (SEQ ID NO:1) converted to C-alpha-formylglycine (87-95% in Table 4, 94% in Table 13); glycans bearing sialic acid and mannose-6-phosphate
# Molecular target: M6P receptors on the surface of human fibroblasts (human), P11717
# Assay: cell-based or functional assay
# M6P receptors on the surface of human fibroblasts (human), P11717, sequence (P11717 41-2491): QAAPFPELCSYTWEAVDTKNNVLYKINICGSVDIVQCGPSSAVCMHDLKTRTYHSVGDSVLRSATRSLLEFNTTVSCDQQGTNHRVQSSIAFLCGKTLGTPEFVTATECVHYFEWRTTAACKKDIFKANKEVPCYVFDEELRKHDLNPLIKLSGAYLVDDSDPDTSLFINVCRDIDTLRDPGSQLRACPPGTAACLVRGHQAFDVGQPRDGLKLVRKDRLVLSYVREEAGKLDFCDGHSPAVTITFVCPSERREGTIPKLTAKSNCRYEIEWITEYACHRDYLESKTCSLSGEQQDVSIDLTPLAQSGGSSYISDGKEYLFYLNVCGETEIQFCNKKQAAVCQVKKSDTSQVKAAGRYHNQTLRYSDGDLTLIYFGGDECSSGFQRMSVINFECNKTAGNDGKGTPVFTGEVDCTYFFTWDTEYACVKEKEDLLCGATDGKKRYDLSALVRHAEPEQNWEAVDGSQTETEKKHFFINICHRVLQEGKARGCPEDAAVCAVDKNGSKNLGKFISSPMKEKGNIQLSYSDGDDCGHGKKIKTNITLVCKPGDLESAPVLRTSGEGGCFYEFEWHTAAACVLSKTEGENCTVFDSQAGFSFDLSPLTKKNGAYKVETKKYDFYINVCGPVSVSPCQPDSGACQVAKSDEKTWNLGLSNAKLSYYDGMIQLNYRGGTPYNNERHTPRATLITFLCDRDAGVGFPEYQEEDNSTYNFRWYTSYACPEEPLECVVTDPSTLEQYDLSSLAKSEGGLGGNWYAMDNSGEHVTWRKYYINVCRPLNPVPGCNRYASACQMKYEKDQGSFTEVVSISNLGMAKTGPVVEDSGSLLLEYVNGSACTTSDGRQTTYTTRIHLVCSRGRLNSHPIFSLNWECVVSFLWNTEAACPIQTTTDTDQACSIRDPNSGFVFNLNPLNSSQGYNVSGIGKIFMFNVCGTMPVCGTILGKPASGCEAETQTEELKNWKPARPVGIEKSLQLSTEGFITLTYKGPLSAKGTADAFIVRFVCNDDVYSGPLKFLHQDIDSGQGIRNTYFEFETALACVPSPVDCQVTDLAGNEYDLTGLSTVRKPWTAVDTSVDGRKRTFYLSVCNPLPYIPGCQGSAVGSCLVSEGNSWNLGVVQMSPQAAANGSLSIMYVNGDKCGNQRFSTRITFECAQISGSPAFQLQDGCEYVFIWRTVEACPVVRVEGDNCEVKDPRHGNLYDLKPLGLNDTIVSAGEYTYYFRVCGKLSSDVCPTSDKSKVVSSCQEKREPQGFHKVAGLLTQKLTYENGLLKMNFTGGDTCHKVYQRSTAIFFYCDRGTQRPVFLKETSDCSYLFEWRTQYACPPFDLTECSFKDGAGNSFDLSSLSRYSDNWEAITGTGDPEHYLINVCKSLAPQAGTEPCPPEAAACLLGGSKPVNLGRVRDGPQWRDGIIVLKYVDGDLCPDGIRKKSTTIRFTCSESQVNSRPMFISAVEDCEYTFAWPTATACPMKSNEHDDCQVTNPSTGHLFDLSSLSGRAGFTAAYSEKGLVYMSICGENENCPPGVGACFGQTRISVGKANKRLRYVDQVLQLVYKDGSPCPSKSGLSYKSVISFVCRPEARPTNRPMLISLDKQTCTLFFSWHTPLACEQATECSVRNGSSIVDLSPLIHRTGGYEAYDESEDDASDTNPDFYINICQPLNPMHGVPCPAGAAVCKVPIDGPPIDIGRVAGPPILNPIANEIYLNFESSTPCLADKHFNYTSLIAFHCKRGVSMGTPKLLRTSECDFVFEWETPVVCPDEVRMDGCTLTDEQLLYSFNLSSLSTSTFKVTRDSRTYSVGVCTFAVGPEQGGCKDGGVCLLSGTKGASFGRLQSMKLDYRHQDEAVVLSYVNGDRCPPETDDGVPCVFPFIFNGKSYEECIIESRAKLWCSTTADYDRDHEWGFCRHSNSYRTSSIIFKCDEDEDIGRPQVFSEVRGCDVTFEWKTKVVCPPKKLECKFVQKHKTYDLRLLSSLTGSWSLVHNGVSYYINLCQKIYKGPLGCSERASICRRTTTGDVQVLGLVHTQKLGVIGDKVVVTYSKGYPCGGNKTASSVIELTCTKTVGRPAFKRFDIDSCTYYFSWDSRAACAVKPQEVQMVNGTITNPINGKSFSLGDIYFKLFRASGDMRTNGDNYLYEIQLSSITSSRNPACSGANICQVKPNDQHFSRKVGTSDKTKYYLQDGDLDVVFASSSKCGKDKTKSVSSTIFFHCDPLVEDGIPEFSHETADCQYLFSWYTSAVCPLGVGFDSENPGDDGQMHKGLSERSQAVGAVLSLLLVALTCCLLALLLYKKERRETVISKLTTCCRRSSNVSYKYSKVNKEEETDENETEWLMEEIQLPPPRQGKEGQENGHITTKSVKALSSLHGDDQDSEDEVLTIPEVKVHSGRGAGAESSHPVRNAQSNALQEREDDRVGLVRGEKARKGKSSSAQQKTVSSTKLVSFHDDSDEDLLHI
binder,measurement,value
B1,Cell Uptake,98
same,Cellular Uptake (Bioassay),85% and 95% and 97%
same,Internalization,83%
